Experimental data published in US7629135B2, “Toll-like receptor agonists and antagonists and methods of use thereof” (The Board of Trustees of the University of Illinois, priority 2006, dated 2009).

Tests used:
TLR2 [1] = biological target: T1, TLR2 (Homo sapiens, UniProt O60603); test: NF-κB luciferase reporter assay in TLR2-HeLa cells; format: cell-based
T1 construct: host or cells: HeLa
Protocol: (§1) To determine whether TLR2 is a receptor for SAA, a TLR2-expressing cell line was prepared in HeLa cells, which contain very little endogenous TLR2 transcript (FIG. 6A, upper panel). […] TLR2 is a class I transmembrane protein that contains an extracellular ligand binding domain (ectodomain), a transmembrane domain and a cytoplasmic domain consisting of the Toll/IL-1/receptor/Resistance (TIR) motif. Studies have shown that TLR2 forms heterodimers with TLR1 and TLR6 (Ozinsky et al., 2000), which display different preference for TLR2 ligands (Hoebe et al., 2005; Takeuchi et al., 2002). The C-terminal TIR domain is conserved among TLRs and responsible for TLR signaling (O'Neill and Bowie, 2007; Takeda and Akira, 2004). To assess the relative contributions of TLRs to SAA signaling, TLR1, TLR2, TLR4 and TLR6 were overexpressed in the TLR2-HeLa cells, and their effects on SAA-induced NF-κB luciferase reporter activity were determined. […] In addition, the TIR domain deletion mutants (ΔTIR) of these receptors were expressed, which are negative regulators of TLR signaling.
(§2) Methods for the generation of TLR2-HeLa stable cell line: HeLa cells stably transfected with human TLR2 gene were generated by transfecting HeLa cells with the expression construct pUNO-hTLR2 (InvivoGen, San Diego, Calif.; GenBank accession number for human TLR2 cDNA is NM_003264) and selected with Blasticidin at concentration of 20 μg/ml for 2 weeks. The control HeLa cells were generated at the same time by transfecting with empty pUNO vector. Cells were maintained in DMEM supplemented with 10% heat-inactivated FB S, 2 mM L-glutamine, 100 IU/ml penicillin, and 50 μg/ml streptomycin. Expression of TLR2 was confirmed using an anti-TLR2 antibody (eBioscience) and FTTC-conjugated anti-mouse antibody, on a FACSCalibur flow cytometer (Becton Dickinson). The TLR2-HeLa and control cells were then co-transfected with 5xNF-κB reporter plasmids (pNF-κB-Luc, Stratagene, Cedar Creek, Tex., catalog no. 219077) and empty SFFV vector bearing a neomycin resistant gene. The TLR2-HeLa/NF-κB reporting cells were obtained after selecting with G418 at concentration of […] for 2-3 weeks. Cells (5′10^5/ml) were grown in DMEM supplemented with 10% heat-inactivated FBS, 2 mM L-glutamine, 100 IU/ml penicillin, and […] streptomycin.
(§3) Methods for using HeLa cells in reporter assay: Mock-transfected HeLa and TLR2-HeLa cells were maintained at ˜5×10^5 cells/well in six-well plates, transfected with plasmid expression vectors coding for a 3×κB-directed luciferase reporter, pCMVβ vector DNA (Promega) and/or other expression constructs as indicated. Total DNA concentration was adjusted to 1 μg/sample by addition of empty vector DNA. Transient transfection was performed using LipofectAmine Plus reagent (Invitrogen). […]

TLR2 [2] = test: NF-κB luciferase reporter assay in TLR2-HeLa cells; format: cell-based, human; settings: TLR2-HeLa cells, p<0.01
Protocol: as §1, §2, §3

T1 sequence (O60603 21-784): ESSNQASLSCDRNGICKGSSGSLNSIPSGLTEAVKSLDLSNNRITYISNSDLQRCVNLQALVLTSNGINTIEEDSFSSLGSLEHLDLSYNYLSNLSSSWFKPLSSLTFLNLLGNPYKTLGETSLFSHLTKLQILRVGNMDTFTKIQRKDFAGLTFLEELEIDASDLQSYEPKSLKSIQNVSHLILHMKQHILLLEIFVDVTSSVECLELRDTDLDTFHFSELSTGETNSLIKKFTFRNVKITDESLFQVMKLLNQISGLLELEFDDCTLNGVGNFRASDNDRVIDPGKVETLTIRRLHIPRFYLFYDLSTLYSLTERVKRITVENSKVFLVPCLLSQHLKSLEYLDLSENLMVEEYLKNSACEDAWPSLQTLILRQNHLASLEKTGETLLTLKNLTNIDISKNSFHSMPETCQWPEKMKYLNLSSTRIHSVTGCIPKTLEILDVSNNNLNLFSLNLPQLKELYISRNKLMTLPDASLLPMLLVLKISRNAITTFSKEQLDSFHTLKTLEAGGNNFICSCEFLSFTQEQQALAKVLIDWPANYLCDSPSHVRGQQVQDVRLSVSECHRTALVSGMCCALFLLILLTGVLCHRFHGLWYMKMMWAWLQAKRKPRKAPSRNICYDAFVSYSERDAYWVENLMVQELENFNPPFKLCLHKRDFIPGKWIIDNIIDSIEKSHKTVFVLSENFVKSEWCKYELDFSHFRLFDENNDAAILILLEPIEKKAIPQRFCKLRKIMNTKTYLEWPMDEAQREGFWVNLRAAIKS
T1 sequence (Q15399 25-786 partner): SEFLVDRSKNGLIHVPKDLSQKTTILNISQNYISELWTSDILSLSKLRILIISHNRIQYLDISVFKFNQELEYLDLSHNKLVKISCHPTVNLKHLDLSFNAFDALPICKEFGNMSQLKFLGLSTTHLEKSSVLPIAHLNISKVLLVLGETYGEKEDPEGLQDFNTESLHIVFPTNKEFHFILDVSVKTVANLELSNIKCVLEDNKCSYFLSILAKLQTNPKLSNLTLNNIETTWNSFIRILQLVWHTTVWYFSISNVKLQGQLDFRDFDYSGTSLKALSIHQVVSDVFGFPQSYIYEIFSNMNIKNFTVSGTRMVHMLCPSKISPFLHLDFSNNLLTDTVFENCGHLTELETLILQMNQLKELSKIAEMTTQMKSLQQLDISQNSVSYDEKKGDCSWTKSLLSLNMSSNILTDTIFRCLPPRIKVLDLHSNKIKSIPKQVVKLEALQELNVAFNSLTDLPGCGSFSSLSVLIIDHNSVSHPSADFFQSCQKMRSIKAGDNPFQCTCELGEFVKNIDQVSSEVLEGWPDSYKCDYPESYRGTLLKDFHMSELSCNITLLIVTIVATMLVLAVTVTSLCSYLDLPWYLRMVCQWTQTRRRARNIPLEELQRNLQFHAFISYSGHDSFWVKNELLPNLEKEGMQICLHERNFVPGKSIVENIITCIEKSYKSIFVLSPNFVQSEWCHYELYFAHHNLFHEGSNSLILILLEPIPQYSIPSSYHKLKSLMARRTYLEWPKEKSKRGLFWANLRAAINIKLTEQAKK

B1: SAA: Recombinant human SAA purchased from PeproTech; major acute-phase protein of 104 amino acids (protein, UniProt P0DJI8 19-122, looked up)
Serum amyloid A-1 protein: RSFFSFLGEAFDGARDMWRAYSDMREANYIGSDKYFHARGNYDAAKRGPGGAWAAEVITDARENIQRFFGHGAEDSLADQAANEWGRSGKDPNHFRPAGLPEKY
With B1 the NF-κB luciferase activity (TLR2 [1]; SAA-stimulated TLR2-HeLa vs mock-transfected HeLa cells, p<0.01) was “significantly increased NF-κB luciferase activity”, the “SAA-induced NF-κB luciferase activity with exogenous expression of TLR1” value (TLR2 [1]; TLR2-HeLa cells overexpressing TLR1) was “potentiated SAA-induced NF-κB luciferase activity” and the “SAA-induced NF-κB luciferase activity with ΔTIR mutants of TLR1, TLR2 and TLR6” value (TLR2 [2]) was “significant inhibition”.
